The conditions of the data set: Pseudomonas aeruginosa (strain ATCC 15692 / DSM 22644 / CIP 104116 / JCM 14847 / LMG 12228 / 1C / PRS 101 / PAO1); pH 7; 25 °C; GdnHCl; Fluorescence, CD; Tris-HCl 100 mM; reversible: Yes; whole UniProt chain shown.

The results in this text go back to FireProtDB (doi:10.1021/bi050342n).

B1: Azurin wild type, P00282 (protein)
chain: MLRKLAAVSLLSLLSAPLLAAECSVDIQGNDQMQFNTNAITVDKSCKQFTVNLSHPGNLPKNVMGHNWVLSTAADMQGVVTDGMASGLDKDYLKPDDSRVIAHTKLIGSGEKDSVTFDVSKLKEGEQYMFFCTFPGHSALMKGTLTLK
For B1, the denaturant m value was determined as 4.06 kcal/mol/M and the unfolding free energy worked out at 54 kJ/mol.
